Several values for one entry are separate records, joined by “and”; a condition that tells them apart may be missing. Equal entries are not always repeated. Where two headings read alike, the source gives them in different places.
Assays:
[1] = rat, in vivo, sc
Experimental: (§1) (1) 18 SD rats (half male and half female) were purchased and fed for one week.
(§2) (2) Rats were divided into 3 groups, half male and half female, and weight of rats were recorded respectively.
(§3) The blood was centrifuged at 12000 rpm/min to take 200 μL of supernatant, then the supernatant was diluted with PBS solution according to a ratio of 1:3, and finally placed in an EP tube and stored in a −80° C. refrigerator.
(§4) (4) Biological samples were measured by double-antibody sandwich ELISA.
(§5) (1) Coating, HM-3 monoclonal antibody was diluted with a coating buffer (CBS) in certain concentration, added to an ELISA plate and coated overnight.
(§6) (2) Plate washing, the coating buffer was discarded, and the plate was washed by PBST for 3 times, and then dried by patting.
(§7) (3) Sealing, a blocking buffer was added for sealing at 37.5° C., the plate washing process was repeated and the plate was dried by patting.
(§8) (4) Addition of samples to be measured, the samples to be measured were added to the ELISA plate with multiple wells, and then incubated at 37.5° C.; the plate washing process was repeated and the plate was dried by patting.
(§9) (5) Addition of a secondary antibody, the secondary antibody diluted proportionally was added for incubation at 37.5° C. The plate washing process was repeated and the plate was dried by patting.
(§10) (6) Addition of the enzyme-labeled secondary antibody for reaction, the HRP-labeled secondary antibody which was diluted by 5% skim milk powder solution according to certain proportion was added for incubation at 37.5° C. The plate washing process was repeated and the plate was dried by patting.
(§11) (7) Addition of a substrate, a TMB substrate in certain volume L was added for reaction in the dark.
(§12) (8) Termination of the reaction, a certain amount of stop buffer was added to terminate the reaction.
(§13) (9) Detection, read OD450 nm with a microplate reader.

[2] = Pharmacokinetics after single subcutaneous injection (double-antibody sandwich ELISA)
Experimental: as §1, §2, §3, §4, §5, §6, §7, §8, §9, §10, §11, §12, §13

With mIgG4-Fc-(GGGGS)3-HM-3 [TSL-4] the Vd/F ([1]; 4.17 mg/kg) was 4.200 L/kg, the Vd/F ([1]; 12.5 mg/kg) was 3.177 L/kg and the Vd/F ([1]; 37.5 mg/kg) was 4.967 L/kg. For the same substance, the Plasma concentration ([2]; 4.17 mg/kg sc, 0.00 h, Mean) was 0 µg/mL, the Plasma concentration ([2]; 4.17 mg/kg sc, 0.00 h, single rats No. 1-5) was 0 µg/mL and the Plasma concentration ([2]; 4.17 mg/kg sc, 0.50 h, Mean) was 0.0818 µg/mL. The Plasma concentration ([2]; 4.17 mg/kg sc, 0.50 h, single rats No. 1-5) was 0.00626 µg/mL and 0.0985 µg/mL and 0.131 µg/mL and 0.0504 µg/mL and 0.122 µg/mL, the Plasma concentration ([2]; 4.17 mg/kg sc, 1.00 h, Mean) was 0.135 µg/mL and the Plasma concentration ([2]; 4.17 mg/kg sc, 1.00 h, single rats No. 1-5) was 0.0588 µg/mL and 0.162 µg/mL and 0.168 µg/mL and 0.136 µg/mL and 0.151 µg/mL. The Plasma concentration ([2]; 4.17 mg/kg sc, 3.00 h, Mean) was 0.388 µg/mL, the Plasma concentration ([2]; 4.17 mg/kg sc, 3.00 h, single rats No. 1-5) was 0.238 µg/mL and 0.382 µg/mL and 0.412 µg/mL and 0.338 µg/mL and 0.570 µg/mL and the Plasma concentration ([2]; 4.17 mg/kg sc, 5.00 h, Mean) was 0.573 µg/mL. The Plasma concentration ([2]; 4.17 mg/kg sc, 5.00 h, single rats No. 1-5) was 0.667 µg/mL and 0.482 µg/mL and 0.575 µg/mL and 0.374 µg/mL and 0.766 µg/mL, the Plasma concentration ([2]; 4.17 mg/kg sc, 6.00 h, Mean) was 0.894 µg/mL and the Plasma concentration ([2]; 4.17 mg/kg sc, 6.00 h, single rats No. 1-5) was 1.278 µg/mL and 0.699 µg/mL and 1.024 µg/mL and 0.491 µg/mL and 0.978 µg/mL. The Plasma concentration ([2]; 4.17 mg/kg sc, 7.00 h, Mean) was 1.297 µg/mL, the Plasma concentration ([2]; 4.17 mg/kg sc, 7.00 h, single rats No. 1-5) was 1.696 µg/mL and 0.903 µg/mL and 1.556 µg/mL and 0.914 µg/mL and 1.415 µg/mL and the Plasma concentration ([2]; 4.17 mg/kg sc, 8.00 h, Mean) was 1.356 µg/mL. The Plasma concentration ([2]; 4.17 mg/kg sc, 8.00 h, single rats No. 1-5) was 1.383 µg/mL and 1.584 µg/mL and 1.319 µg/mL and 1.407 µg/mL and 1.088 µg/mL, the Plasma concentration ([2]; 4.17 mg/kg sc, 10.00 h, Mean) was 1.058 µg/mL and the Plasma concentration ([2]; 4.17 mg/kg sc, 10.00 h, single rats No. 1-5) was 1.192 µg/mL and 1.305 µg/mL and 0.854 µg/mL and 0.960 µg/mL and 0.980 µg/mL. For the same substance, the Plasma concentration ([2]; 4.17 mg/kg sc, 12.00 h, Mean) was 0.771 µg/mL, the Plasma concentration ([2]; 4.17 mg/kg sc, 12.00 h, single rats No. 1-5) was 0.947 µg/mL and 0.964 µg/mL and 0.712 µg/mL and 0.363 µg/mL and 0.867 µg/mL and the Plasma concentration ([2]; 4.17 mg/kg sc, 16.00 h, Mean) was 0.468 µg/mL. For the same substance, the Plasma concentration ([2]; 4.17 mg/kg sc, 16.00 h, single rats No. 1-5) was 0.767 µg/mL and 0.682 µg/mL and 0.237 µg/mL and 0.183 µg/mL and 0.471 µg/mL, the Plasma concentration ([2]; 4.17 mg/kg sc, 20.00 h, Mean) was 0.205 µg/mL and the Plasma concentration ([2]; 4.17 mg/kg sc, 20.00 h, single rats No. 1-5) was 0.249 μg/mL and 0.252 μg/mL and 0.179 μg/mL and 0.172 μg/mL (2×). The Plasma concentration ([2]; 4.17 mg/kg sc, 24.00 h, Mean) was 0.100 µg/mL, the Plasma concentration ([2]; 4.17 mg/kg sc, 24.00 h, single rats No. 1-5) was 0.0638 μg/mL and 0.0738 μg/mL and 0.0533 μg/mL and 0.155 μg/mL (2×) and the Plasma concentration ([2]; 4.17 mg/kg sc, 28.00 h, Mean) was 0.0667 µg/mL. For the same substance, the Plasma concentration ([2]; 4.17 mg/kg sc, 28.00 h, single rats No. 1-5) was 0.0454 μg/mL and 0.0406 μg/mL and 0.0381 μg/mL and 0.105 μg/mL (2×), the Plasma concentration ([2]; 4.17 mg/kg sc, 41.00 h, Mean) was 0.0545 µg/mL and the Plasma concentration ([2]; 4.17 mg/kg sc, 41.00 h, single rats No. 1-5) was 0.0298 μg/mL and 0.0288 μg/mL and 0.0231 μg/mL and 0.0954 μg/mL (2×). For the same substance, the Plasma concentration ([2]; 4.17 mg/kg sc, 53.00 h, Mean) was 0.0366 µg/mL, the Plasma concentration ([2]; 4.17 mg/kg sc, 53.00 h, single rats No. 1-5) was 0.0108 µg/mL and 0.0074 µg/mL and 0.0171 µg/mL and 0.0669 µg/mL and 0.0809 µg/mL and the Plasma concentration ([2]; 4.17 mg/kg sc, 65.00 h, Mean) was 0.0233 µg/mL. For the same substance, the Plasma concentration ([2]; 4.17 mg/kg sc, 65.00 h, single rats No. 1-5) was 0.008536 µg/mL and 0.003139 µg/mL and 0.0168 µg/mL and 0.0440 µg/mL and 0.044 µg/mL, the Plasma concentration ([2]; 4.17 mg/kg sc, 77.00 h, Mean) was 0.0114 µg/mL and the Plasma concentration ([2]; 4.17 mg/kg sc, 77.00 h, single rats No. 1-5) was 0.005846 µg/mL and 0.002666 µg/mL and 0.0125 µg/mL and 0.0181 µg/mL and 0.01811 µg/mL. The “AUC 0-77” value ([2]; 4.17 mg/kg single sc) was 7055.774 ng·h/mL, the “AUC 0-∞” value ([2]; 4.17 mg/kg single sc) was 9006.668 ± 3859.519 ng·h/mL and the “MRT 0-77” value ([2]; 4.17 mg/kg single sc) was 14.880 h. For the same substance, the “MRT 0-∞” value ([2]; 4.17 mg/kg single sc) was 17.330 h, the Tmax ([2]; 4.17 mg/kg single sc) was 7.4 ± 0.55 h and the ka ([2]; 4.17 mg/kg single sc) was 0.258. For the same substance, the “t½ka (absorption half-life)” value ([2]; 4.17 mg/kg single sc) was 2.265 h, the “t½ke (elimination half-life)” value ([2]; 4.17 mg/kg single sc) was 30.710 ± 3.100 h and the “α, ke” value ([2]; 4.17 mg/kg single sc) was 0.090. For the same substance, the Plasma concentration ([2]; 12.5 mg/kg sc, 0.50 h, Mean) was 0.848 µg/mL, the Plasma concentration ([2]; 12.5 mg/kg sc, 0.50 h, single rats No. 1-5) was 0.176 µg/mL and 0.741 µg/mL and 0.995 µg/mL and 0.598 µg/mL and 1.728 µg/mL and the Plasma concentration ([2]; 12.5 mg/kg sc, 1.00 h, Mean) was 1.877 µg/mL. For the same substance, the Plasma concentration ([2]; 12.5 mg/kg sc, 1.00 h, single rats No. 1-5) was 0.740 µg/mL and 1.435 µg/mL and 1.875 µg/mL and 1.153 µg/mL and 4.180 µg/mL, the Plasma concentration ([2]; 12.5 mg/kg sc, 3.00 h, Mean) was 4.078 µg/mL and the Plasma concentration ([2]; 12.5 mg/kg sc, 3.00 h, single rats No. 1-5) was 1.459 µg/mL and 2.970 µg/mL and 4.100 µg/mL and 2.070 µg/mL and 9.793 µg/mL. The Plasma concentration ([2]; 12.5 mg/kg sc, 5.00 h, Mean) was 7.518 µg/mL, the Plasma concentration ([2]; 12.5 mg/kg sc, 5.00 h, single rats No. 1-5) was 2.030 µg/mL and 5.512 µg/mL and 8.329 µg/mL and 6.748 µg/mL and 14.973 µg/mL and the Plasma concentration ([2]; 12.5 mg/kg sc, 6.00 h, Mean) was 9.970 µg/mL. The Plasma concentration ([2]; 12.5 mg/kg sc, 6.00 h, single rats No. 1-5) was 2.337 µg/mL and 7.869 µg/mL and 11.753 µg/mL and 9.720 µg/mL and 18.172 µg/mL, the Plasma concentration ([2]; 12.5 mg/kg sc, 7.00 h, Mean) was 13.413 µg/mL and the Plasma concentration ([2]; 12.5 mg/kg sc, 7.00 h, single rats No. 1-5) was 3.372 µg/mL and 8.202 µg/mL and 11.959 µg/mL and 7.582 µg/mL and 35.951 µg/mL. The Plasma concentration ([2]; 12.5 mg/kg sc, 8.00 h, Mean) was 10.626 µg/mL, the Plasma concentration ([2]; 12.5 mg/kg sc, 8.00 h, single rats No. 1-5) was 4.395 µg/mL and 6.684 µg/mL and 10.711 µg/mL and 6.343 µg/mL and 24.998 µg/mL and the Plasma concentration ([2]; 12.5 mg/kg sc, 10.00 h, Mean) was 8.284 µg/mL. The Plasma concentration ([2]; 12.5 mg/kg sc, 10.00 h, single rats No. 1-5) was 3.014 µg/mL and 5.271 µg/mL and 9.706 µg/mL and 6.000 µg/mL and 17.430 µg/mL, the Plasma concentration ([2]; 12.5 mg/kg sc, 12.00 h, Mean) was 7.390 µg/mL and the Plasma concentration ([2]; 12.5 mg/kg sc, 12.00 h, single rats No. 1-5) was 2.663 µg/mL and 4.448 µg/mL and 7.496 µg/mL and 5.562 µg/mL and 16.780 µg/mL. For the same substance, the Plasma concentration ([2]; 12.5 mg/kg sc, 16.00 h, Mean) was 6.292 µg/mL and the Plasma concentration ([2]; 12.5 mg/kg sc, 16.00 h, single rats No. 1-5) was 2.587 µg/mL and 3.719 µg/mL and 6.053 µg/mL and 4.976 µg/mL and 14.124 µg/mL.

From US11655308B2, “HM-3 fusion protein and application thereof” (TASLY BIOPHARMACEUTICALS CO., LTD., priority 2017, dated 2023)
